Article PMC12949252

Assays:
[1] = biological target: SEL1L-S658P-FLAG (mouse); test: co-IP
[2] = biological target: SEL1L-G585D-FLAG (mouse); test: co-IP

| Molecule | percent reduction of binding against WT [1] [%] | percent reduction of binding against WT [2] [%] |
| --- | --- | --- |
| HRD1 (endogenous, HEK293T) (from UniProt Q86TM6 1-617) (enzyme) | 70 | – |
| OS9 (endogenous, HEK293T) (natural protein) GGVGSLNLEELSEMRYGIEILPLPVMGGQSQSSDVVIVSSKYKQRYECRLPAGAIHFQREREEETPAYQGPGIPELLSPMRDAPCLLKTKDWWTYEFCYGRHIQQYHMEDSEIKGEVLYLGYYQSAFDWDDETAKASKQHRLKRYHSQTYGNGSKCDLNGRPREAEVRFLCDEGAGISGDYIDRVDEPLSCSYVLTIRTPRLCPHPLLRPPPSAAPQAILCHPSLQPEEYMAYVQRQADSKQYGDKIIEELQDLGPQVWSETKSGVAPQKMAGASPTKDDSKDSDFWKMLNEPEDQAPGGEEVPAEEQDPSPEAADSASGAPNDFQNNVQVKVIRSPADLIRFIEELKGGTKKGKPNIGQEQPVDDAAEVPQREPEKERGDPERQREMEEEEDEDEDEDEDEDERQLLGEFEKELEGILLPSDRDRLRSEVKAGMERELENIIQETEKELDPDGLKKESERDRAMLALTSTLNKLIKRLEEKQSPELVKKHKKKRVVPKKPPPSPQPTEEDPEHRVRVRVTKLRLGGPNQDLTVLEMKRENPQLKQIEGLVKELLEREGLTAAGKIEIKIVRPWAEGTEEGARWLTDEDTRNLKEIFFNILVPGAEEAQKERQRQKELESNYRRVWGSPGGEGTGDLDEFDF | – | 90 |
